Data as given in patent US20240336661A1, “PEPTIDES DERIVED FROM RUMINOCOCCUS TORQUES” (University of Copenhagen, priority 2021, published 2024).

B1: RUCILP2: 87 amino acid irisin-like polypeptide cleaved from the Ruminococcus torques FNDC5-like protein RUMTOR_00181; recombinant, 6-His-tagged from E. coli (protein)
chain: APVDVKVSEITETSAKASWKNAADGKEAAGYNVYVDGVKLNKELLTEASCGLTNLKAETTYFVEVTAVDAAGNESVKSEKVTFKTLK
modifications: 6-His tag; Ruminococcus torques
notes: 87 amino acid irisin-like polypeptide cleaved from the Ruminococcus torques FNDC5-like protein RUMTOR_00181; recombinant, 6-His-tagged from E. coli
B2: RUCILP1: 88 amino acid FNIII domain polypeptide of RUMTOR_00181 from Ruminococcus torques (protein)
chain: APVDVKVSEVTETSAKVSWKNAADGKEAAGYNVYVDGTKVNEELIAETTYNVSSLKDGTTYSVEVTAVDAAGEESAKSEKVEFTTVKK
modifications: Ruminococcus torques
notes: 88 amino acid FNIII domain polypeptide of RUMTOR_00181 from Ruminococcus torques

Key:
[1] = test system: murine C2C12 myoblasts; experiment: Myotube formation and myogenesis gene expression in C2C12 myoblasts; type: cell-based, mouse
Experimental: FIG. 12. […] The C2C12 myotubes were treated with indicated doses of RUCILP2 overnight and myotube images were collected at magnification, ×10.
FIG. 28. […] White preadipocytes from human visceral fat (C-12732, PromoCell) were cultured until 80% confluent and switched into differentiation media (with 0.3 ml/ml of fetal calf serum (FCS), 8 ug/ml of d-biotin, 0.5ug/ml of insulin, 400 ng/ml of dexamethasone) in the presence of 15 nM of 21-AABP2. The differentiation process to mature adipocytes was completed after 14 days. Cells were harvested after 14 days of differentiation and the indicated genes were quantified by q-PCR. Inguinal fat tissues from 6-week-old wild-type C57BL/6J female mice were dissected and washed with PBS, minced and digested for 1 hour at 37° C. in PBS containing 10 mM CaCl2, 2.4 U/ml dispase II (Roche) and 10 mg/ml collagenase D (Roche). After adding warm DMEM/F12 (1:1) with 10% FCS, digested tissue was filtered through a […] cell strainer and centrifuged at 600×g for 10 minutes. Pellet was resuspended by 40 ml DMEM/F12 (1:1) with 10% FCS and filtered through a […] cell strainer followed by centrifugation at 600×g for 10 minutes. Pelleted inguinal stromal vascular cells were grown to confluence and split onto 12-well plates. The cells were induced to differentiate by treatment with […], 0.5 mM isobutyl methyl xanthine for 2 days. After that, cells were maintained in […] for 4 days with medium change every other day. The cells were treated with 15 nM of 21-AABP2 every other day during 6 days of differentiation. Cells were harvested after 6 days of differentiation and thermogenesis gene were quantified by q-PCR. C2C12 myoblasts (CRL-1772, ATCC) were cultured until 80% confluent and switched into differentiation media (with 2% horse serum). The treatment with 21-AABP2 started from the second day of differentiation. Cells were harvested after 4 days of differentiation and expression of myogenesis genes were quantified by q-PCR. Data are presented as mean+/−SEM of one representative experiment done in biological triplicates. Statistical significance was determined by unpaired two-tailed Student's t test, *, p<0.05
FIG. 29. […] Representative images of myoblasts (CRL-1772, ATCC) at 24h of differentiation in the presence of phosphate buffered saline (PBS, blank) or 21-AABP2 (15 nM). Presented images were from one representative experiment done in biological triplicates.
(§1) C2C12 cells were seeded on 12-well plates under DMEM/F-12 medium (Dulbecco's Modified Eagle Medium/Nutrient Mixture F-12, Fisher Scientific, #11524436), supplemented with 10% FBS (Fetal Bovine Serum, Fisher Scientific, #11550356) and 1% Penicillin-Streptomycin (Fisher Scientific, #11548876). Cell cultures were maintained in a humidified chamber with 5% CO2 at 37° C., and culture media were changed every 2-3 days.
At approximately 80% confluence, 10% fetal bovine serum was replaced with 2% horse serum to induce C2C12 myoblast cells to differentiate into myotubes. Twenty-four hours later (day 1 of the differentiation), the cells were treated with recombinant RUCILP2 or commercial recombinant irisin (Sigma, #SRP8039-10UG and Phoenix pharmaceuticals, #067-29A) or saline. For integrin inhibitor treatment, cells were treated with 10 μM of CycloRGDyK (Selleckchem, #S7844) for 10 minutes and washed with PBS before treated with recombinant RUCILP2 or commercial recombinant irisin or saline. At day three, the cells were refreshed with the same media as day one. After treatments for six hours on day 3, C2C12 cells were harvested for qRT-PCR analysis.
C2C12 myoblasts were cultured until 80% confluent and switched into differentiation media (with 2% horse serum). The treatment with 21-AABP2 started from the second day of differentiation. Representative images of the formed myotubes at 24h of differentiation in the presence of PBS (blank) or 21-AABP2 (15 nM) were captured. […]

[2] = test system: H9C2 cardiomyoblasts; experiment: Gene expression in H9C2 cardiomyoblasts; type: cell-based; details: q-PCR
Experimental: FIG. 13. […] The cells were treated with various doses of RUCILP2, and cells were collected for q-PCR quantification on indicated genes. For integrin inhibitor treatment, cells were treated with 10 uM of cRGDyK (Selleckchem, #S7844) for 10 minutes and washed with PBS before treated with RUCILP2. Data are presented as mean+/−SEM of one representative experiment done in technical triplicate. Statistical significance was determined by unpaired two-tailed Student's t-test. *, p<0.05 vs 0 nM RUCILP2.
as §1, with “Commercially available H9C2” for “C2C12”, “cells (ATCC, #CRL-1446)” for “cells”
At 70% confluence, the cells were treated with indicated concentrations of recombinant RUCILP2, commercial recombinant irisin (Sigma, #SRP8039-10UG and Phoenix pharmaceuticals, #067-29A), and PBS for 24 h. For integrin inhibitor treatment, cells were treated with 10 μM of CycloRGDyK (Selleckchem, #S7844) for 10 minutes and washed with PBS before treated with recombinant RUCILP2, commercial recombinant irisin and PBS. […]

Molecule	myotube formation ([1]; C2C12, treated overnight)	expression of Heyl ([1]; C2C12 myoblasts, dose-response)	myotube formation markers Sox8 and Stat3 ([1]; C2C12 myoblasts, dose-response)	gene expression in H9C2 cardiomyoblasts (markers of cardiomyogenesis) [2]
B1	induces myotube formation	more clear dose-dependence response	less dose-dependent	stimulate gene expression
B2			less dose-dependent	
